Experimental data from patent US20190315873A1 (AGOMAB THERAPEUTICS, published 2019).

Assays:
human MET ECD [1] = molecular target: T1, human MET ECD (human, UniProt P08581 25-932); test: ELISA, mouse-format mAb on MET ECD
T1 construct: range 1-932; recombinant ECD made by standard protein engineering; also called hMET; human MET extracellular domain
Procedure: (§1) In order to directly determine whether—and to what extent—the prior art agonistic anti-MET antibodies cross-reacted with mouse MET, and to compare them to our human/mouse equivalent anti-MET antibodies, we performed an ELISA assay. Since all prior art antibodies were obtained or engineered with a mouse IgG/A format, we employed the mouse IgG/A version of 71G3, 71D6 and 71G2. Human or mouse MET ECD was immobilized in solid phase (100 ng/well in a 96-well plate) and exposed to increasing concentrations of antibodies (0-40 nM) in solution. […] Among the antibodies tested, only 71G3, 71D6 and 71G2 bound to both human and mouse MET, and they did so with indistinguishable affinities and capacities.

mouse MET ECD [2] = molecular target: T2, mouse MET ECD (mouse, UniProt P16056 25-931); test: ELISA, mouse-format mAb on MET ECD
T2 construct: range 1-931; recombinant ECD; also called mMET; mouse MET extracellular domain
Procedure: as §1

[3] = molecular target: human MET ECD mutant A (mutations 1, 2, 3) (human) (UniProt P08581); test: ELISA on mutant human MET ECD
[4] = molecular target: human MET ECD mutant D (mutations 1, 2) (human) (UniProt P08581); test: ELISA on mutant human MET ECD
[5] = molecular target: human MET ECD mutant E (mutations 2, 3, 4) (human) (UniProt P08581); test: ELISA on mutant human MET ECD
[6] = molecular target: human MET ECD mutant H (mutations 2, 4) (human) (UniProt P08581); test: ELISA on mutant human MET ECD
rat MET ECD (rat) = rat MET ECD (rat) (UniProt P97523); test: ELISA: MET ECD immobilized (100 ng/well), mAb in human IgG1/lambda format in solution (0-40 nM), HRP anti-human Fc
human MET ECD [7] = molecular target: T1, human MET ECD; test: as above
Source text: (§2) To this end, we investigated whether our human/mouse equivalent anti-MET antibodies cross-reacted with MET from other species, including rat (Rattus norvegicus) and cynomolgus monkey (Macaca fascicularis). […] Human and mouse MET ECD were used as controls. A restricted panel of antibodies representative of both SEMA binders (71D6, 71C3, 71D4, 71A3, 71G2) and PSI binders (76H10, 71G3) was selected. The 5D5 prior art antibody was used as control. MET ECD proteins were immobilized in solid phase (100 ng/well in a 96-well plate) and exposed to increasing concentrations (0-40 nM) of antibodies (with human constant regions) in solution. […] We conclude that the 71D6, 71C3, 71D4, 71A3, 71G2, 76H10 and 71G3 antibodies bind with similar affinity and capacity to human MET, mouse MET, rat MET and simian MET, at least as determined by ELISA.

mouse MET ECD [8] = molecular target: T2, mouse MET ECD; test: as above
Source text: as §2
Target sequence in this assay (P16056 25-931 limits assumed, form in doubt): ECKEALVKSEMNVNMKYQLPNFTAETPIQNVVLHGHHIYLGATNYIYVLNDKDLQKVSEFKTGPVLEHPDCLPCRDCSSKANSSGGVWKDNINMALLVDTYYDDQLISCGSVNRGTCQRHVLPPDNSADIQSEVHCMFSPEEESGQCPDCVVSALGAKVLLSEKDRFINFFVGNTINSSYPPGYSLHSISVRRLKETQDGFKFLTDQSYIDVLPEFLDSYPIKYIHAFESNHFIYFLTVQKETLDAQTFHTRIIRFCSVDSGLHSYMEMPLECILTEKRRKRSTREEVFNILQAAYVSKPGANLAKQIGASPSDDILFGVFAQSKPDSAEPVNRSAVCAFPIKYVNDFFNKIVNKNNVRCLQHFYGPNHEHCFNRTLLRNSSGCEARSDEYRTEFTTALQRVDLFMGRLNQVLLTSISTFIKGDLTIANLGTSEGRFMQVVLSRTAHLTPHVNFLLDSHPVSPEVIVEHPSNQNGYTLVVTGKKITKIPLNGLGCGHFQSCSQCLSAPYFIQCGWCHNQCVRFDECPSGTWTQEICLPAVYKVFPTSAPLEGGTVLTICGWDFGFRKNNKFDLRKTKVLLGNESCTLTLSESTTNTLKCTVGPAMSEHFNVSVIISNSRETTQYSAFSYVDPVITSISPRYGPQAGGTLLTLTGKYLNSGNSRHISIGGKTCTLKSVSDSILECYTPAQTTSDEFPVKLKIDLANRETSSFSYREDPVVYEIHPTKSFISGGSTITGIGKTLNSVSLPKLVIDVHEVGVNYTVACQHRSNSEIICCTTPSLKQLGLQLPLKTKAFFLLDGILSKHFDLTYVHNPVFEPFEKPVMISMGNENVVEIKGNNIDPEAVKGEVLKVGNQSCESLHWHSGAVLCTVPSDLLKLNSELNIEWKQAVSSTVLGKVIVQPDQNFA

monkey MET ECD = molecular target: T3, monkey MET ECD (cynomolgus monkey, UniProt A0A2K5UM36 25-932); test: as above
T3 construct: also called simian MET; cynomolgus monkey MET
Source text: as §2

rat MET ECD (rat), sequence (P97523 25-931 limits assumed, form in doubt): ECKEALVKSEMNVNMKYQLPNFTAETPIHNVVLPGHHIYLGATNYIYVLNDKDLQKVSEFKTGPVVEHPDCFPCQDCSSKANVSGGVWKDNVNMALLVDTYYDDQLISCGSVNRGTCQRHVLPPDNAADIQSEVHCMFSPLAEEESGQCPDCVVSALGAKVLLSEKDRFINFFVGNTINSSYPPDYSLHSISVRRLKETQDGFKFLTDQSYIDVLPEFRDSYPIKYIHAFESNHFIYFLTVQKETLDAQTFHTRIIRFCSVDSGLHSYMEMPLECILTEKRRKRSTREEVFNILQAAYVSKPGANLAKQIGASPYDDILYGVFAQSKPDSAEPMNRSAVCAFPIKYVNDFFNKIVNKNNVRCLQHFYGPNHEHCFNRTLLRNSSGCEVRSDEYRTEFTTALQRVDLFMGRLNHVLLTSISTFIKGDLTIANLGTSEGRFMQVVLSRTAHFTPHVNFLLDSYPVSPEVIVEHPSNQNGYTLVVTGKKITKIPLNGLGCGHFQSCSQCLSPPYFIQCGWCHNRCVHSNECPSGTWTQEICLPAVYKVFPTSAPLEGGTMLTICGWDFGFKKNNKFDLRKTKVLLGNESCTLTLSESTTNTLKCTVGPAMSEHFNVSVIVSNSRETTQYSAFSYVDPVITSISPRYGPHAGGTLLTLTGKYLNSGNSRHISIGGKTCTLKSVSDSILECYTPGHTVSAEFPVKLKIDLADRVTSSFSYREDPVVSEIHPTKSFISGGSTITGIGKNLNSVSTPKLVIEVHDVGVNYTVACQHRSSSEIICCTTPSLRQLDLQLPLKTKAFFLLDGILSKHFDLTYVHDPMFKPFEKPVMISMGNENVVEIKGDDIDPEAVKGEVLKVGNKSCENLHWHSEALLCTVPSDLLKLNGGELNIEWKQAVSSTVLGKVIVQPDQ
T3 sequence (A0A2K5UM36 entry or part of it limits assumed): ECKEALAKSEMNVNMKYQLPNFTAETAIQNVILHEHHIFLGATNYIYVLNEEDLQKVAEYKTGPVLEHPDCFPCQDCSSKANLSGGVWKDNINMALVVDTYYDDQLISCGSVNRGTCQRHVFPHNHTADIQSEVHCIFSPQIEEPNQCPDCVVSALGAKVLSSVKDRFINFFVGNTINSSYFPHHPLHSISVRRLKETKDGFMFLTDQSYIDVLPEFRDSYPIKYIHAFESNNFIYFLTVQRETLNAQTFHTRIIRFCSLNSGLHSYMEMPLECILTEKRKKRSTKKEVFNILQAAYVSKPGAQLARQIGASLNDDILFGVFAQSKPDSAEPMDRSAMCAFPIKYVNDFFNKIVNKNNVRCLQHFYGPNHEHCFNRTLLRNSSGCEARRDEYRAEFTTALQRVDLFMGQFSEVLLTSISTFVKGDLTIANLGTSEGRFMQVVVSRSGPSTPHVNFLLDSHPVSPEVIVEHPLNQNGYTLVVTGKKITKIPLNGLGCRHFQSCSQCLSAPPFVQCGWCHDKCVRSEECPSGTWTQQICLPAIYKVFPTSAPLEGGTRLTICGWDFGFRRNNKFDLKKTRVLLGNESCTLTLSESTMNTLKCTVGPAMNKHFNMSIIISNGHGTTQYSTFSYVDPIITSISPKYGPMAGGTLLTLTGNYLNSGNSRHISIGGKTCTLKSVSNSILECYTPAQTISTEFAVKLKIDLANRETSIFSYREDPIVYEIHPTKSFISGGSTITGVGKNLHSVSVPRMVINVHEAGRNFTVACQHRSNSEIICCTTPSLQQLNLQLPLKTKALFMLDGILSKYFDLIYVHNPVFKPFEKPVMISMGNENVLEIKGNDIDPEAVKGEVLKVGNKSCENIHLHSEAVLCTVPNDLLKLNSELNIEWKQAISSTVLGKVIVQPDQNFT

Row | Molecule | EC50 (human MET ECD [1]) | EMAX (human MET ECD [1]) | EC50 (mouse MET ECD [2]) | % binding (EMAX) vs WT MET ECD [3] | % binding (EMAX) vs WT MET ECD [4] | % binding (EMAX) vs WT MET ECD [5] | % binding (EMAX) vs WT MET ECD [6] | EC50 (read off the curve) (rat MET ECD (rat)) | EC50 (read off the curve) (human MET ECD [7]) | EC50 (read off the curve) (mouse MET ECD [8]) | EC50 (read off the curve) (monkey MET ECD)
1 | 5D5 anti-human MET antibody, mouse IgG1/lambda format | 0.197 nM | 3.16 OD450 | > 40 nM | – | – | – | – | – | – | – | –
2 | 71D6 llama-human chimeric mAb (human IgG1/lambda) (antibody) heavy: ELQLVESGGGLVQPGGSLRLSCAASGFTFSSYGMSWVRQAPGKGLEWVSAINSYGGSTSYADSVKGRFTISRDNAKNTLYLQMNSLKPEDTAVYYCAKEVRADLSRYNDYESYDYWGQGTQVTVSSASTKGPSVFPLAPSSKSTSGGTAALGCLVKDYFPEPVTVSWNSGALTSGVHTFPAVLQSSGLYSLSSVVTVPSSSLGTQTYICNVNHKPSNTKVDKKVEPKSCDKTHTCPPCPAPELLGGPSVFLFPPKPKDTLMISRTPEVTCVVVDVSHEDPEVKFNWYVDGVEVHNAKTKPREEQYNSTYRVVSVLTVLHQDWLNGKEYKCKVSNKALPAPIEKTISKAKGQPREPQVYTLPPSRDELTKNQVSLTCLVKGFYPSDIAVEWESNGQPENNYKTTPPVLDSDGSFFLYSKLTVDKSRWQQGNVFSCSVMHEALHNHYTSEVFVPQSRKVI light: QPVLNQPSALSVTLGQTAKITCQGGSLGARYAHWYQQKPGQAPVLVIYDDDSRPSGIPERFSGSSSGGTATLTISGAQAEDEGDYYCQSADSSGSVFGGGTHLTVLQPKAAPSVTLFPPSSEELQANKATLVCLISDFYPGAVTVAWKADSSPVKAGVETTTPSKQSNNKYAASSYLSLTPEQWKSHRSYSCQVTHEGSTVEKTVAPTECS | – | – | – | 103% | 128% | 43.6% | 38.6% | 0.1 nM | ~0.1 nM | ~0.1 nM | ~0.1 nM
3 | 71C3 llama-human chimeric mAb (human IgG1/lambda) (antibody, V domains shown) VH: QLQLVESGGGLVQPGGSLRLSCAASGFTFSSHAMSWVRQAPGKGLEWVSAINSGGGSTSYADSVKGRFTISRDNAKNTLYLQMNSLKPEDTAVYYCAKELRFDLARYTDYEAWDYWGQGTQVTVSS VL: SYELTQPSALSVTLGQTAKITCQGGSLGSSYAHWYQQKPGQAPVLVIYDDDSRPSGIPERFSGSSSGGTATLTISGAQAEDEGDYYCQSADSSGNAAVFGGGTHLTVLQ | – | – | – | 99.8% | 102% | 59.6% | 61.6% | 0.3 nM | ~0.1 nM | ~0.1 nM | ~0.1 nM
4 | 71D4 llama-human chimeric mAb (human IgG1/lambda) (antibody, V domains shown) VH: ELQLVESGGGLVQPGGSLRLSCAASGFTFSGYGMSWVRQAPGKGLEWVSDINSGGGSTSYADSVKGRFTISRDNAKNTLYLQMNSLKPEDTAVYYCAKDMRLYLARYNDYEAWDYWGQGTQVTVSS VL: SSALTQPSALSVTLGQTAKITCQGGSLGSSYAHWYQQKPGQAPVLVIYDDDSRPSGIPERFSGSSSGGTATLTISGAQAEDEGDYYCQSADSSGNAAVFGGGTHLTVLQ | – | – | – | 114% | 120% | 57.2% | 58.7% | 0.2 nM | ~0.2 nM | ~0.2 nM | ~0.1 nM
5 | DN-30 mouse anti-human MET antibody (antibody, from another filing, V domains shown) VH: QVQLQQPGTELVKPGASVKLSCKASGYTFTSYWIHWVKQRPGQGLEWIGEINPSSGRTNYNEKFKNKVTVTVDKSSTTAYMQLSNLTSEDSAVYYCASRGYWGQGTTLTVSS VL: DIVLTQSPASLAVSLGQRATISCKASQSVDYDGGSYMSWFQQRPGQPPKLLISAASNLESGIPARFSGSGSGTDFTLNIHPVEEEDVATYYCQQSYEDPLTFGAGTKLELKR | 0.067 nM | 3.06 OD450 | > 40 nM | – | – | – | – | – | – | – | –
